Paper PMC6736097 (Nucleic Acids Research, 2019)

B1: NTR1 split-YFP fusion for BiFC (NTR1-nYFP) (natural protein)
chain: not shown
B2: ILP1 split-YFP fusion for BiFC (ILP1-nYFP and ILP1-cYFP) (natural protein)
chain: MGSNRPKNFRRRGDDGGDEIDGKVATPSSKPTSTLSSSKPKTLSASAPKKKLLSFADDEEEEEDGAPRVTIKPKNGRDRVKSSSRLGVSGSSHRHSSTKERRPASSNVLPQAGSYSKEALLELQKNTRTLPYSRSSANAEPKVVLKGLIKPPQDHEQQSLKDVVKQVSDLDFDEEGEEEQHEDAFADQAAIIRAKKERMRQSRSAPAPDYISLDGGIVNHSAVEGVSDEDADFQGIFVGPRPQKDDKKGVFDFGDENPTAKETTTSSIYEDEDEEDKLWEEEQFKKGIGKRMDEGSHRTVTSNGIGVPLHSKQQTLPQQQPQMYAYHAGTPMPNVSVAPTIGPATSVDTLPMSQQAELAKKALKDNVKKLKESHAKTLSSLTKTDENLTASLMSITALESSLSAAGDKYVFMQKLRDFISVICDFMQNKGSLIEEIEDQMKELNEKHALSILERRIADNNDEMIELGAAVKAAMTVLNKHGSSSSVIAAATGAALAASTSIRQQMNQPVKLDEFGRDENLQKRREVEQRAAARQKRRARFENKRASAMEVDGPSLKIEGESSTDESDTETSAYKETRDSLLQCADKVFSDASEEYSQLSKVKARFERWKRDYSSTYRDAYMSLTVPSIFSPYVRLELLKWDPLHQDVDFFDMKWHGLLFDYGKPEDGDDFAPDDTDANLVPELVEKVAIPILHHQIVRCWDILSTRETRNAVAATSLVTNYVSASSEALAELFAAIRARLVEAIAAISVPTWDPLVLKAVPNTPQVAAYRFGTSVRLMRNICMWKDILALPVLENLALSDLLFGKVLPHVRSIASNIHDAVTRTERIVASLSGVWTGPSVTRTHSRPLQPLVDCTLTLRRILEKRLGSGLDDAETTGLARRLKRILVELHEHDHAREIVRTFNLKEAV

Columns and labels:
PRP43b-cYFP = PRP43b-cYFP (Arabidopsis thaliana, UniProt O22899 1-729); test: split reporter
Chain of PRP43b-cYFP (O22899 whole entry): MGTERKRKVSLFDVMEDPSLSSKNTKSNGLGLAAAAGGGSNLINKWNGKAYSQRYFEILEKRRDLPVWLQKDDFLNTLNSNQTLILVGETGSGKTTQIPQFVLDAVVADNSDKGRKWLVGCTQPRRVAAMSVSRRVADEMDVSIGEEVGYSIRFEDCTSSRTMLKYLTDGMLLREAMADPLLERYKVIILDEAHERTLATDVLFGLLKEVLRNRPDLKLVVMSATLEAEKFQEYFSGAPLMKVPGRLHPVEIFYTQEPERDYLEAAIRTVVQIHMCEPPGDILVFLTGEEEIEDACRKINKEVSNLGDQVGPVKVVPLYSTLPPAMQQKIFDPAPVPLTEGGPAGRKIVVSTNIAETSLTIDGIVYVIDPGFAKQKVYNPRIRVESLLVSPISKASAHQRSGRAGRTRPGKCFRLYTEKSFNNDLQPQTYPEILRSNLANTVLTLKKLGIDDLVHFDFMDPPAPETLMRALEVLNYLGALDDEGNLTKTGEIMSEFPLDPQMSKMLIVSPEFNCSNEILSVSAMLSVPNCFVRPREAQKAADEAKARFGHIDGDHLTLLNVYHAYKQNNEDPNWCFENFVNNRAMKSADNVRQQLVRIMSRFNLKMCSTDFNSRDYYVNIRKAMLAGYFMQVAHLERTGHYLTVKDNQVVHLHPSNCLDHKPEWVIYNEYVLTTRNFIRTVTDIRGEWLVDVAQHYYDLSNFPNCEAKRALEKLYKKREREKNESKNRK

[1] = target: B2; test: split reporter

positive BiFC ratio (percent of protoplasts) (PRP43b-cYFP) [%]	positive BiFC ratio (percent of protoplasts) [1] [%]	Binder
14.7	41.4	B1
1.4	–	B2
